Experiments:
[1] = system: Tc3 transposase (pRP2302) (Caenorhabditis elegans); test: cell_activity; conditions: 5mC at CpG; gene trap events in mouse ES cells
[2] = molecular target: T1, SB transposase N123 (N-terminal 123 aa DNA-binding domain) (Sleeping Beauty (synthetic, …)); test: EMSA; poly(dI-dC) 1 ug, 25 C, 30 min; conditions: tags: C-terminal His6 (pET21d, E. coli); label: 32P 5'
T1 chain: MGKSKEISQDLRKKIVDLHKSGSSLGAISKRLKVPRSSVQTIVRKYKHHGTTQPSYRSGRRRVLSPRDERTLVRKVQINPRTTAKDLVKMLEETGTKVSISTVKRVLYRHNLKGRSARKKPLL
Experimental: (§1) This oligonucleotide was first labeled with [γ-³²P]ATP using T4 polynucleotide kinase, and then annealed. DNA fragment of IR/DR-L was digested with HindIII and KpnI for the preparation, and thereafter, the fragment was methylated using SssI methylase or kept unmethylated and then the fragment was treated with an alkaline phosphatase. The digested fragment was extracted using phenol-chloroform, and precipitated with ethanol, and then finally, T4 polynucleotide was used to label with [γ-³²P]ATP. In the presence of poly(dI-dC) (1.0 μg), 0.2 pmol of oligonucleotide probe or 100 pg of IR/DR-L fragment, and 1.0 μl of N123, a nucleoprotein complex was formed in a buffer described previously in Ivics, Z., P. B. Hackett, R. H. Plasterk, and Z. Izsvak. 1997; Cell 91:501-510). After a thirty minute incubation at 25 degrees Celsius, samples were loaded on a 5%-native polyacrylamide gel, and electrophoresed at 150V constant voltage, and in 0.5× Tris-borate-EDTA, 1.5 hours for oligonucleotide probe and 2.5 hours for IR/DR-L fragment. After the gel was dried, the nucleoprotein was visualized by autoradiography.
(§2) In order to clarify the mechanism of transposition which has been enhanced by methylation of CpG, the present inventors have compared the affinity of recombinant SB transposase peptide against the methylated IR/DR and unmethylated IR/DR by EMSA. […]

[3] = molecular target: T1, SB transposase N123 (N-terminal 123 aa …); test: EMSA; shift and competition comparable to unmethylated site; poly(dI-dC) 1 ug, 25 C; conditions: tags: C-terminal His6 (pET21d, E. coli); label: 32P 5'
Experimental: as §1, §2

Tc3 transposon vector pTc3/SAβ-geo, CpG methylated
binding signal (fold vs unmethylated) [1]: 2

B1: IR/DR-L outer binding site, unmethylated 34 bp (dsDNA)
DNA 1: TACAGTTGAAGTCGGAAGTTTACATACACTTAAG
DNA 2: CTTAAGTGTATGTAAACTTCCGACTTCAACTGTA
binding result [2]: binds

B2: IR/DR-L outer binding site, methylated 34 bp (dsDNA)
DNA 1: B1 DNA 1
DNA 2: B1 DNA 2
modifications: 5mC at the CpG on both strands (n in SEQ:64 and SEQ:65)
binding result [3]: binds

From patent publication US20070022485, “Method of preparing transgenic organism with use of methylation and system therefor” (Japan Science Techonology Agency, published 2007)
